Substitutions are numbered along the chain they refer to. Several values for one entry are separate records, joined by “and”; a condition that tells them apart may be missing. Equal values may be shown once.

Data on eight molecules can be found in patent publication US20220185894A1 (F STAR THERAPEUTICS, published 2022).

B1: anti-human LAG-3/PD-L1 mAb2 FS18-7-32/84G09 with LALA mutation (bispecific antibody, human IgG1, kappa, L234A L235A)
heavy: EVQLVESGGGLVQPGRSLRLSCAASGFTFDDYAMHWVRQTPGKGLEWVSGISWKSNIIGYADSVKGRFTISRDNAKNSLYLQMNSLRAEDTALYYCARDITGSGSYGWFDPWGQGTLVTVSSASTKGPSVFPLAPSSKSTSGGTAALGCLVKDYFPEPVTVSWNSGALTSGVHTFPAVLQSSGLYSLSSVVTVPSSSLGTQTYICNVNHKPSNTKVDKKVEPKSCDKTHTCPPCPAPEAAGGPSVFLFPPKPKDTLMISRTPEVTCVVVDVSHEDPEVKFNWYVDGVEVHNAKTKPREEQYNSTYRVVSVLTVLHQDWLNGKEYKCKVSNKALPAPIEKTISKAKGQPREPQVYTLPPSWDEPWGEDVSLTCLVKGFYPSEIAVEWESNGQPENNYKTTPPVLDSDGSFFLYSKLTVPYDRWVWPDEFSCSVMHEALHNHYTQKSLSLSPG
light: DIQMTQSPSSLSASVGDRVTITCRASQSISSYLNWYQQKPGKAPKPLIYVASSLQSGVPSSFSGSGSGTDFTLTISSLQPEDFATYYCQQSYSNPITFGQGTRLEIKRTVAAPSVFIFPPSDEQLKSGTASVVCLLNNFYPREAKVQWKVDNALQSGNSQESVTEQDSKDSTYSLSSTLTLSKADYEKHKVYACEVTHQGLSSPVTKSFNRGEC
notes: also called FS18-7-32/84G09LALA; F518-7-32/84G09LALA
B2: anti-human LAG-3/PD-L1 mAb2 FS18-7-65/84G09 with LALA mutation (bispecific antibody, human IgG1, kappa, L234A L235A)
heavy: B1 heavy with E381D, Q391Y, P392A, N394Y
light: B1 light
notes: also called FS18-7-65/84G09 LALA; F518-7-65/84G09LALA
B3: anti-human LAG-3/PD-L1 mAb2 FS18-7-33/84G09 with LALA mutation (bispecific antibody, human IgG1, kappa, L234A L235A)
heavy: B1 heavy with E381D, N394D
light: B1 light
notes: also called FS18-7-33/84G09LALA; F518-7-33/84G09LALA
B4: anti-human LAG-3/PD-L1 mAb2 FS18-7-36/84G09 with LALA mutation (bispecific antibody, human IgG1, kappa, L234A L235A)
heavy: B1 heavy with E381D, F409Y
light: B1 light
notes: also called FS18-7-36/84G09LALA
B5: anti-human LAG-3/PD-L1 mAb2 FS18-7-58/84G09 with LALA mutation (bispecific antibody, human IgG1, kappa, L234A L235A)
heavy: B1 heavy with E381D, Q391Y, N394I, N395E, Y396F
light: B1 light
notes: also called F518-7-58/84G09LALA
B6: anti-human LAG-3/PD-L1 mAb2 FS18-7-88/84G09 with LALA mutation (bispecific antibody, human IgG1, kappa, L234A L235A)
heavy: B1 heavy with E381D, Q391V, N394L, Y396V
light: B1 light
B7: anti-human PD-L1 mAb 84G09 (without LALA mutation) (antibody, human IgG1, kappa)
heavy: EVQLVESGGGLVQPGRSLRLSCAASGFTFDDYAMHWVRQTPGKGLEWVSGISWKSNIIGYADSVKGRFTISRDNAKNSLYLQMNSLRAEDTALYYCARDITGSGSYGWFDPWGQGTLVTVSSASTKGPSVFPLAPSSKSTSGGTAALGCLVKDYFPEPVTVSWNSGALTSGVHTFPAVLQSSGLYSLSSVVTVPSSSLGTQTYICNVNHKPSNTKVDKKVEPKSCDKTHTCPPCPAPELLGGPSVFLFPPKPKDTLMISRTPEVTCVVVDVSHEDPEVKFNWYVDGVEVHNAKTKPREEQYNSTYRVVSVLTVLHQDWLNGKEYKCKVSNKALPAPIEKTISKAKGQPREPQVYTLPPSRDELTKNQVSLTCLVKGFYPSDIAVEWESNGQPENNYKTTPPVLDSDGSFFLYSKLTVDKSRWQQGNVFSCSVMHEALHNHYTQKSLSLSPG
light: B1 light
notes: Human IgG1; also called 84G09 (parental); parental anti-PD-L1 mAb
B8: anti-human LAG-3/PD-L1 mAb2 FS18-7-95/84G09 with LALA mutation (bispecific antibody, human IgG1, kappa, L234A L235A)
heavy: B1 heavy with E381D, Q391Y, P392Q, N394D
light: B1 light

T4 sequence (Q9NZQ7 19-239 limits assumed): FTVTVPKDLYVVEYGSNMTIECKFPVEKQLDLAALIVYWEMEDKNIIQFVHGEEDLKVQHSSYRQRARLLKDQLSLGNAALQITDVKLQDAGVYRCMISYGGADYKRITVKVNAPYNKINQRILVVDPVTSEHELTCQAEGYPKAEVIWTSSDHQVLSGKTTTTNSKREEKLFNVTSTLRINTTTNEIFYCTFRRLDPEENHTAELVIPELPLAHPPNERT
T2 sequence (Q9NZQ7 other isoform, or with tags, fused parts or gaps limits assumed): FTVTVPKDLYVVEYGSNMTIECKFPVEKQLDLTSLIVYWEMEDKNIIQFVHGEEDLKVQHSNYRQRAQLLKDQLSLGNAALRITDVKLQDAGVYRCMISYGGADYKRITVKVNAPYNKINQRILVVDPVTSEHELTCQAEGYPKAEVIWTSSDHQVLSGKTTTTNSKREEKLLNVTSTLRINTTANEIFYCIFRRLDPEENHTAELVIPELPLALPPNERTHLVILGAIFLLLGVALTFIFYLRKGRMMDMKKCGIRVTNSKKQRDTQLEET

The target in the first assay is T1, recombinant Fc-tagged human LAG-3 (R&D Systems, 2319-L3-050) (human, UniProt P18627 23-450).
T1 construct: Bought protein; also called LAG-3 Fc; human LAG-3-Fc; not shown: Fc tag of the bought fusion protein
T1 sequence: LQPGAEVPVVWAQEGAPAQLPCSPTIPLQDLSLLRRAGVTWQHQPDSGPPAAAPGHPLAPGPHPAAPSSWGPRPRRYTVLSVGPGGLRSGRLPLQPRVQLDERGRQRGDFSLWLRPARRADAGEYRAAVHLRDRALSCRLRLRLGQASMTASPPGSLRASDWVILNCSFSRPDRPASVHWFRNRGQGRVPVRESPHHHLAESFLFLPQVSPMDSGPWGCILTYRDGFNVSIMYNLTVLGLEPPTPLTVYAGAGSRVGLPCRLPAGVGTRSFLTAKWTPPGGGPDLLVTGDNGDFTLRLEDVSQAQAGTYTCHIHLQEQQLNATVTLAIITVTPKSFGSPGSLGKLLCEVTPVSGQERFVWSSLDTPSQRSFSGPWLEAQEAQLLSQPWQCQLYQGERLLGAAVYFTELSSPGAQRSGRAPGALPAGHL
Nature of the assay: SPR, BIAcore T200; mAb2 captured on Protein L, human LAG-3 Fc injected. On the procedure: (§1) Protein L (Thermo, 21189) was immobilized on flow cells 1 and 2 of a Series S CM5 chip (GE Healthcare, BR-1005-30) by amine coupling (GE Healthcare, BR-1000-50) to a surface density of 2000 RU by following the manufacturer's instructions for the BIAcore T200 instrument. […] The association time was 3 min and the dissociation time was 6 min. Running buffer was HBS-P (GE Healthcare, BR-1003-68). Both flow cells were regenerated by injecting 10 mM sodium hydroxide (NaOH) at a flow rate of 100 μl/min for 20 seconds. The data were analysed by double referencing against the blank flow cell.
(§2) The binding kinetics were fit with a 1:1 Langmuir model to generate binding association (kₐ) and dissociation (kd) rates. Equilibrium binding constants (KD) were calculated by dividing the dissociation rate by the association rate for each sample. Data analysis was performed with BiaEvaluation software version 3.2.
A general note: SPR reads the build-up and loss of mass on a sensor chip optically.
In the case of B1, the Kd (in general, the constant that tells how readily two partners part at equilibrium) was determined as 0.049 nM; the dissociation rate constant (koff) (commonly the rate constant with which the complex falls apart) came out at 0.00028 s⁻¹; the kon – broadly, the second-order rate constant of association – came to 5.6e+06 M⁻¹ s⁻¹.

As to B2, the Kd came out at 0.039 nM, the dissociation rate constant (koff) came out at 0.00023 s⁻¹ and the kon was 5.9e+06 M⁻¹ s⁻¹.

Regarding B3, the Kd was determined as 0.043 nM, the koff turned out to be 0.00018 s⁻¹ and the kon came out at 4.2e+06 M⁻¹ s⁻¹.

Consider B4, for which the Kd is 0.038 nM, the koff is 0.00017 s⁻¹ and the kon was 4.4e+06 M⁻¹ s⁻¹.

Another assay concerns the target T2, cynomolgus PD-L1 expressed on cells (cynomolgus monkey, UniProt Q9NZQ7 19-290 (human entry)).
T2 construct: also called cPD-L1; cyno PD-L1
Nature of the assay: flow cytometry on HEK cells expressing cynomolgus PD-L1. The protocol:
(§3) HEK cells expressing human or cynomolgus PD-L1 grown in DMEM (Life Technologies, 61965-026) containing 10% FBS (Life Technologies, 10270-1-6), 100 μg/ml Hygromycin B (Melford Laboratories Ltd, Z2475), 15 μg/ml Blasticidin (Melford Laboratories Ltd, B1105) and 1 μg/ml Doxycyclin (Sigma, D9891) were detached from tissue culture flasks using cell dissociation buffer (Life Technologies, 13151-014) and seeded in V-bottom 96-well plates (Costar, 3897) at 2×10⁵ cells/well. The plates were centrifuged at 1500 rpm for 3 min at 4° C. to pellet the cells. A dilution series of the mAb² (or control mAb) was incubated with the cells in a 100 μl volume for 1 h at 4° C. The plates were washed and secondary antibody (Anti-human Fc-488, Jackson ImmunoResearch, 109-546-098) was diluted 1:1000 in PBS and 100 μl was added to the cells for 30 min at 4° C. (plates were kept in the dark). The plates were washed then cells were resuspended in 100 μl PBS containing 1 μg/ml DAPI (Biotium, 40043). The plates were read using Canto II flow cytometer (BD Bioscience). Dead cells were excluded and the fluorescence in the FITC channel (488 nm/530/30) was measured. The data was fit using log (agonist) vs response in GraphPad Prism Software. The plates were read on a BD FACSCanto II cytometer (BD Biosciences) and the data analysed using FlowJo.
For B1, it took 1.98 nM to reach a half-maximal effect (EC50).

For the molecule B5, the EC50 – broadly, the midpoint of the concentration-response curve – is 1.86 nM and 2.03 nM.

The molecule B2 registered an EC50 of 1.84 nM.

Turning to B6, the EC50 turned out to be 1.81 nM.

B3: the EC50 is 1.9 nM and 1.73 nM.

The molecule B4 yielded an EC50 of 2 nM.

Regarding B7, the EC50 is 1.64 nM and 1.96 nM.

The next assay deals with T3, human PD-L1 expressed on cells (human, UniProt Q9NZQ7 19-290).
T3 construct: also called hPD-L1; human PD-L1 HEK
T3 sequence (Q9NZQ7 19-290 limits assumed): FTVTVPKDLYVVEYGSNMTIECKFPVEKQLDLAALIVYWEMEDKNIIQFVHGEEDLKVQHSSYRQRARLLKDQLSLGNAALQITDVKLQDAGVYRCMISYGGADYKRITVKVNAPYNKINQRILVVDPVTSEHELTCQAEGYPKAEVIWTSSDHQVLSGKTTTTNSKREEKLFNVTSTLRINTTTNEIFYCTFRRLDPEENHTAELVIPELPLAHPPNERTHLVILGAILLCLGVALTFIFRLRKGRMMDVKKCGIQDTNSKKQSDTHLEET
Nature of the assay: flow cytometry on HEK cells expressing human PD-L1. The protocol: as §3
Turning to B1, the EC50 came to 3.82 nM.

Turning to B5, the EC50 is 3.77 nM and 3.91 nM.

As for B2, the EC50 turned out to be 4 nM.

B6 showed a concentration giving a half-maximal response (EC50) of 3.49 nM.

For B3, the EC50 was 3.45 nM and 3.23 nM.

In turn, B4 returned an EC50 of 3.91 nM.

For B7, the half-maximal effective concentration (EC50) is 3.11 nM and 3.05 nM.

The target of the next assay is T3, human PD-L1 expressed on cells. As to the kind of experiment: cell-based or functional assay.
As to B1, the “Maximal IL2 release calculated as % ctrl (84G09 + 25F7)” value is 82.9%.

Turning to B8, the “Maximal IL2 release calculated as % ctrl (84G09 + 25F7)” value was 79.8%.

Take B5: the “Maximal IL2 release calculated as % ctrl (84G09 + 25F7)” value was 79.4%.

For B2, the “Maximal IL2 release calculated as % ctrl (84G09 + 25F7)” value is 70.2%.

With B3, the “Maximal IL2 release calculated as % ctrl (84G09 + 25F7)” value is 64%.

As to B4, the “Maximal IL2 release calculated as % ctrl (84G09 + 25F7)” value is 71.6%.

Another assay concerns the target T4, human PD-L1 Fc (R&D Systems, 156-B7) (human, UniProt Q9NZQ7 19-239).
T4 construct: Bought protein; not shown: Fc tag of the bought fusion protein
Nature of the assay: SPR, BIAcore T200; mAb2 captured on Protein L, PD-L1 Fc injected. The protocol: as §1, §2
Molecule B1 came in with a Kd of 1 nM, a koff of 0.00032 s⁻¹ and a kon of 340000 M⁻¹ s⁻¹.

For the molecule B2, the Kd amounted to 1.1 nM, the koff was 0.00014 s⁻¹ and the kon amounted to 130000 M⁻¹ s⁻¹.

For the molecule B3, the Kd stood at 1.1 nM, the koff was found to be 0.00042 s⁻¹ and the kon was determined as 370000 M⁻¹ s⁻¹.

In turn, B4 displayed a Kd of 3.5 nM, a koff of 0.00056 s⁻¹ and a kon of 160000 M⁻¹ s⁻¹.
